Source: patent US20190216897A1

Target: IL-18 (human) (UniProt Q14116)
Assay: cell-based or functional assay

B1: neutralizing anti-IL-18 mAb (125-2H; MLB) (antibody, from another filing, V domains shown)
VH: EIQLQQSGPELVKPGASVKVSCKASGYSFTDYFIYWVKQSHGKSLEWIGDIDPYNGDTSYNQKFRDKATLTVDQSSTTAFMHLNSLTSEDSAVYFCARGLRFWGQGTLVTVSA
VL: DIQMTQSPSSLSASLGERVSLTCRASQDIGSKLYWLQQEPDGTFKRLIYATSSLDSGVPKRFSGSRSGSDYSLTISSLESEDFVDYYCLQYASSPYTFGGGTKLAIKR
  decrease in proliferation of CD8+ T cells primed with CD5+ DCs (CFSE dilution): 40%
